10 molecules from patent publication US20260234236A1 (INTERVET, published 2026) can be followed below.

Test [1] concerns the target T1, Recombinant canine IL-4 (R&D Systems, Catalog: 752-CL/CF) (canine, UniProt O77762 25-132).
T1 sequence (looked up): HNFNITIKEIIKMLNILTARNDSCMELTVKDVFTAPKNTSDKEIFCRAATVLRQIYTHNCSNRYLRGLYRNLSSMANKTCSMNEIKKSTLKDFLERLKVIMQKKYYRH
The test can be described thus: cell-based or functional assay.

The target in test [2] is T2, Canine IL-4 with C-terminal Avi-HIS tag (canine, biotin label when loaded on SA biosensors (Example 4); site not stated).
T2 construct: also called cIL-4; biotinylated avitag-cIL-4
T2 chain: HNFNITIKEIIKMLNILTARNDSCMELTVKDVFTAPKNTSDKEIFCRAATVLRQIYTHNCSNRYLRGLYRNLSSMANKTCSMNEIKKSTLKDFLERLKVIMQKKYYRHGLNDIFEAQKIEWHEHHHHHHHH
The test can be described thus: BLI (OCTET HTX); biotin-mAb on SA biosensors, cIL-4 in solution; 1:1 model. The protocol:
(§1) Selected scFv specific to cIL-4 or cIL-13 were converted into full length canine IgG mAbs and tested for binding by OCTET. All kinetics measurements were performed by OCTET HTX using SA biosensors and Data Acquisition 12.0 software. First, each biotin-labeled full-length anti-canine IL-4 or anti-canine IL-13 mAb, at a concentration of 5 μg/mL, were loaded onto the pre-rehydrated SA biosensors until binding signal change ascended to a […] threshold for all channels from the step start or for a maximum of 1200s to insure equal loading density. Second, the biosensors were placed into OCTET Kinetics Buffer (PBS+0.02% Tween20, 0.1% BSA) for the blocking phase for 60s. Third, for the association phase, full-length anti-canine IL-4 mAb or anti-canine IL-13 mAb loaded biosensors were placed into 2-fold serial dilutions from 1000 nM down to 15.6 nM of cIL-4 or cIL-13, respectively, in OCTET Kinetics Buffer for 60s. The last well was buffer alone and that sensor was used for reference sensor subtraction. Finally, the biosensors were placed into OCTET Kinetics Buffer for the dissociation phase for 180s. Analysis was performed using Data Analysis 12.0 software and curves were fitted using a 1:1 binding model.

In test [3] the target is T3, Recombinant canine IL-13 (R&D Systems, Catalog: 5894-CL/CF) (canine, UniProt Q9N0W9 19-131, limits assumed).
T3 sequence (looked up): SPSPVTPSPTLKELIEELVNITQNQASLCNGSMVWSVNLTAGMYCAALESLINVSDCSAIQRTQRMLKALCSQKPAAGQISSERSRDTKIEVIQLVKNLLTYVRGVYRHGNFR
The test is described as follows: cell-based or functional assay.

The target in test [4] is T4, Canine IL-13 with C-terminal Avi-HIS tag (canine, biotin label when loaded on SA biosensors (Example 4); site not stated).
T4 construct: also called cIL-13; biotinylated avitag-cIL13
T4 chain: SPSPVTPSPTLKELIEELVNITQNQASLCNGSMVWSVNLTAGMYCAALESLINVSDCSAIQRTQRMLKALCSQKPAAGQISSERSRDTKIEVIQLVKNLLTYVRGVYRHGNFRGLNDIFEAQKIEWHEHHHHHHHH
The test can be described thus: BLI (OCTET HTX); biotin-mAb on SA biosensors, cIL-13 in solution; 1:1 model. Here is the method: as §1

Test [5] addresses T2, Canine IL-4 with C-terminal Avi-HIS tag. The test is described as follows: DSS cross-linking and High-Mass MALDI MS. The text has this:
In order to identify potentially discontinuous epitopes recognized by the antibodies of the present invention to their respective antigens, e.g., canine IL-4 or canine IL-13, a method was employed that was based on chemical crosslinking using disuccinimidyl suberate (DSS) and mass spectrometry detection (XL-MS) at CovalX Inc. (CovalX® Instrument Incorporated; Covalx.com). With this method, the binding of a canine antibody to its corresponding canine antigen in the presence of a mass-labeled chemical crosslinker is performed. The cross-linking experiments allow the direct analysis of non-covalent interaction by High-Mass MALDI (matrix assisted laser desorption ionization) mass spectrometry. […] The covalent binding generated allows the interacting species to survive the sample preparation process and the MALDI ionization. A High-Mass detection system allows characterizing the interaction in the High-Mass range.
The presence of the antigen-antibody complex were confirmed using High Mass MALDI detection. […]

Numbering of substitutions follows the chain as printed. Names and notes keep the numbering of the source.

B1: IL4-P4-1G3VH-cIgGB/IL4-P4-1G3VL-cCL (antibody, V domains shown)
VH: EVQLVESGGDLVKPGGSLRLSCVASGFTFSSYDMDWVRQAPGKGLEWLSEISTNGDRTHYADAVKGRFAISRDNAKNTVYLQMNSLRAEDTAIYYCVRDGYEYLAFDYWGQGTLVTVSS
VL: QSVLNQLPSLSMNMGETATFTCEGDNIGHKYVNWYQQKPGQAPVLTIYEDNKRPSGIPERFSGSNSGNTATLTISGARAEDEADYYCESEVSTGIVFGGGTHLTVLG
notes: Full-length canine IgG-B
With B1, the “IL-4 IC50 (nM); inhibition of canine IL-4 mediated STAT6 phosphorylation in DH82 cells” value (“IL-4 IC50 (nM); inhibition” for short) in test [1] worked out at 8.31 nM. In test [2], this molecule showed a Kd of 1.51 nM, a koff of 0.00243 s⁻¹ and a kon of 1.61e+06 M⁻¹ s⁻¹.

B2: IL4-P4A-1A10VH-cIgGB/IL4-P4-1A10VL-cCL (antibody, V domains shown)
VH: EVQLVESGGDLVKPGGSLRLSCVASGFTFSDYDMTWVRQAPGKGLQWVADINNGGSSTTYADAVKGRFTISRDNAKNTLYLQMNSLRAEDTAMYYCAKEGDNTWLSFDSWGQGTLVTVSS
VL: QSVLNQLPSVSGSLGQKVTIRCSGNTDNIGMVGAAWYRQVPGEAPKLLLYSDGNRPSGVPDRFSGSDSGRSATLTITGLQPEDEADYYCQSLDPTVPGNYLFGSGTQLTILG
notes: also called IL4-P4-1A10VH-cIgGB/IL4-P4-1A10VL-cCL
With B2, the “IL-4 IC50 (nM); inhibition” value in test [1] is 3.15 nM. In test [2], this molecule yielded an equilibrium dissociation constant (Kd) of 0.846 nM, a koff of 0.00105 s⁻¹ and a kon of 1.24e+06 M⁻¹ s⁻¹.

B3: IL13-P3-1C6VH-cIgGB/IL13-P3-1C6VL-cCL (antibody, V domains shown)
VH: ELTLQESGPGLVKPSQTLSLTCVVSGGSVTNTYEWDWIRQRPGRGLEWMGSWTDNTWYNPAFQGRISITADTAKNQLSLQLSSVTTGDTAVYFCARWTKRWGYDYWGQGTLVTVSS
VL: QSVLTQPASVSGSLGQRVTISCSGRTNNIGYFGANWYQQVPGKAPKLLVSSYGNRPSGVPDRFSASNSANSATLTITGLQAEDEADYYCQSFDTTLGAVVFGGGTQLTVLG
As to B3, the “IL-13 IC50 (nM); inhibition of canine IL-13 mediated STAT6 phosphorylation in DH82 cells” value (“IL-13 IC50 (nM); inhibition” for short) in test [3] worked out at 47.9 nM.

B4: IL13-P3-05VH-cIgGB/IL13-P3-05VL-cCL (antibody, V domains shown)
VH: EVQLVESGGDSVRPGGSLRLSCVASGFTFSRYNMGWVRQAPGKGLQWVAWIYDGGSRTSYADAVKGRFTISRDNAKDTLYLQMDDLRVDDTAVYYCARDPSSWGSLFDYWGQGTLVTVSS
VL: SYVLTQPPSVTVPLRQTARISCGGDNIRSKNVHWYQQKPGQAPVLIIYNDSNRPTGIPERFSGSNSGNMATLTIRGALAEDEADYYCQVWANDGYVFGSGTQLTVLG
notes: Full-length canine IgG-B
Consider B4, for which the “IL-13 IC50 (nM); inhibition” value in test [3] amounted to 13.1 nM. In test [4], the affinity, expressed as Kd, was 5.58 nM; the koff was 0.00148 s⁻¹; the kon stood at 252000 M⁻¹ s⁻¹.

B5: IL13-P3-05VH-cIgGB/IL13-P3-05VLm-cCL (antibody, V domains shown)
VH: B4 VH
VL: B4 VL with N49Q
notes: Full-length canine IgG-B. The light chain has N replaced by Q in CDRL2 to remove a potential glycosylation site; also called IL13-P3-05Lm; IL-13 P3-05Lm
In the case of B5, the “IL-13 IC50 (nM); inhibition” value in test [3] came out at 4.44 nM. In test [4], this molecule returned a Kd of 5.45 nM, a koff of 0.000793 s⁻¹ and a kon of 162000 M⁻¹ s⁻¹.

B6: IL13-P3-1G5VH-cIgGB/IL13-P3-1G5VL-cCL (antibody, V domains shown)
VH: EVQLVQSGGDLVKPGGTLRLSCVASGFTFSSYDMSWVRQSPGKGLQWVAAIWNDGSNTEYADAVKGRFTVSRDNAKNTVYLEMNSLRAEDTAMYYCVKEGPSYGYFDYWGQGTLVTVSS
VL: SYELTQPPSVSVSLGQTATISCSGESLSKYYAQWFQQKAGQAPVLVIYQDTERPSGIPDRFSGSSSGNTHTLTISGARAEDEADYYCESAISPDTYVFGSGTQLTILG
notes: Full-length canine IgG-B; also called IL13-1G5
As to B6, the “IL-13 IC50 (nM); inhibition” value in test [3] is 94.1 nM. In test [4], this molecule returned a Kd of 1.19 nM, a koff of 0.0018 s⁻¹ and a kon of 1.3e+06 M⁻¹ s⁻¹.

B7: IL4-P4A-2D11VH-cIgGB/IL4-P4A-2D11VL-cCL (antibody, V domains shown)
VH: EEQLVEFGGDLVKPGESLRLSCVASGFTFNKYDMSWVRQAPGKGLQWVATVADDESFAYYTDSVKGRFTISRDNAKNTLYLQMNSLRAEDTAMYYCVGKTGSYWDIDFDLWGPGTLVTISS
VL: QAVLTQPPSVSAALGQRVTISCSGSTDNVGTVGASWYQHLPGRAPKLLVYIVGDRPSGVPDRFSGSKSGTSATLTITGLQAEDEADYYCSSWDDSLRGIVFGGGTHLTVLG
notes: Full-length canine IgG-B; also called IL4-2D11
As to B7, the “IL-4 IC50 (nM); inhibition” value in test [1] was found to be 0.91 nM. Further, the binding result in test [5] is “binds”.

B8: IL4-P3-1D7VH-cIgGB/IL4-P3-1D7VL-cCL (antibody, V domains shown)
VH: EVQLVQSGGDLVKPGGSLRLSCVASGFAFNGYDMDWVRLAPGKGLQWLSEISSSGSPTYYADAVEGRFTISRDNAKNTLYLQMDSLRAEDTAVYYCARAGEYTYGYEGYYFDYWGQGTLVTVSS
VL: QSMLTQPASVSGSLGQRVAISCSGSTNNIGIFGATWYQHLPGKAPKFLLYSDGNRPSGVPDRFSGSDSGNSVTLMITALQAEDEADYYCQSFDTTLGAYVFGSGTQLTILG
notes: Full-length canine IgG-B; also called IL4-P3-1D7VH-cIgGB/IL4-P3-D7VL-cCL
On to B8, for which the “IL-4 IC50 (nM); inhibition” value in test [1] was 37.6 nM. In test [2], this molecule registered a Kd of 2.01 nM, a koff of 0.00226 s⁻¹ and a kon of 1.12e+06 M⁻¹ s⁻¹.

B9: IL13-P3-1B4VH-cIgGB/IL13-P3-1B4VL-cCL (antibody)
heavy: ELTLQESGPGLVKPSQTLSLTCVVSGGSVTSNYYWNWIRQRPGRGLEWMGYWTGSTNYNPAFQGRISITADTAKNHFSLQLTSMTTEDTAVYYCARASTWLHGMDFWGHGTSLFVSSASTTAPSVFPLAPSCGSTSGSTVALACLVSGYFPEPVTVSWNSGSLTSGVHTFPSVLQSSGLYSLSSMVTVPSSRWPSETFTCNVAHPASKTKVDKPVPKRENGRVPRPPDCPKCPAPEMLGGPSVFIFPPKPKDTLLIARTPEVTCVVVDLDPEDPEVQISWFVDGKQMQTAKTQPREEQFNGTYRVVSVLPIGHQDWLKGKQFTCKVNNKALPSPIERTISKARGQAHQPSVYVLPPSREELSKNTVSLTCLIKDFFPPDIDVEWQSNGQQEPESKYRTTPPQLDEDGSYFLYSKLSVDKSRWQRGDTFICAVMHEALHNHYTQESLSHSPGK
light: SYVLTQSPSVSGSLGQTVTISCSGTTIGVVGANWYQQLPGKAPKLLVHSDGGRLSGVPDRFSGSESGNSAALTITGLQAEDEADYYCQSFDTTLGYVFGSGTQLTILGQPKASPSVTLFPPSSEELGANKATLVCLISDFYPSGVTVAWKADGSPVTQGVETTKPSKQSNNKYAASSYLSLTPDKWKSHSSFSCLVTHEGSTVEKKVAPAECS
notes: Full-length canine IgG-B; also called IL13-1B4
With B9, the “IL-13 IC50 (nM); inhibition” value in test [3] turned out to be 97.5 nM. In test [4], this molecule returned an equilibrium dissociation constant (Kd) of 8.12 nM, a koff of 0.00208 s⁻¹ and a kon of 256000 M⁻¹ s⁻¹.

B10: IL4-P4A-1F10VH-cIgGB/IL4-P4A-1F10VL-cCL (antibody, V domains shown)
VH: EVQLVQSGGDLVKPAGSLRLSCVASGFTFNSYAMSWVRQAPGKGLQWVAGINSGGSTTTYADAVKGRFTISRDNAKNTLYLQMNSLRAEDTAVYYCAKDQNSYYPSDTFEYWGQGTLVTVSS
VL: QTVVTQEPSLSVSPGGTVTLTCGLSSGSVSTGNYPGWYQQTQGRAPRSIIYDTNSRPSGVPDRFSGSISGNKAVLTITGAQPEDEADYYCSLYTGIAYTDVVFGGGTHLTVLG
notes: Full-length canine IgG-B; also called IL4-1F10; IL4 1F10
With B10, the “IL-4 IC50 (nM); inhibition” value in test [1] was determined as 0.58 nM. In test [2], this molecule registered a Kd of 0.305 nM, a koff of 0.000114 s⁻¹ and a kon of 374000 M⁻¹ s⁻¹.

The Kd is the concentration at which binding is half-saturated. Read a low Kd as tighter binding. The term koff denotes a measure of how fast the partners let go of each other. Read a low koff as slow dissociation. By kon is commonly meant a measure of how fast the partners come together. A lower kon goes with slower complex formation.
